{
  "source": "paper PMC10563079",
  "about": "(Molecules, 2023)",
  "binders": {"B1": {"name": "truncated version of PHGDH (sPHGDH, 1-307) (domain or fragment, human, UniProt O43175 1-307, looked up)", "chain": "MAFANLRKVLISDSLDPCCRKILQDGGLQVVEKQNLSKEELIAELQDCEGLIVRSATKVTADVINAAEKLQVVGRAGTGVDNVDLEAATRKGILVMNTPNGNSLSAAELTCGMIMCLARQIPQATASMKDGKWERKKFMGTELNGKTLGILGLGRIGREVATRMQSFGMKTIGYDPIISPEVSASFGVQQLPLEEIWPLCDFITVHTPLLPSTTGLLNDNTFAQCKKGVRVVNCARGGIVDEGALLRALQSGQCAGAALDVFTEEPPRDRALVDHENVISCPHLGASTKEAQSRCGEEIAVQFVDMV", "modifications": "labelled with Monolith NT.115 Protein Labeling Kit RED-NHS (in the MST assay only)", "notes": "human phosphoglycerate dehydrogenase (PHGDH), catalytic unit, residues 1-307; Exists predominantly as a homo-dimer with a small fraction of monomer; also called catalytic unit of PHGDH; source: recombinant"}},
  "key": {"[1]": {"target": "B1", "experiment": "cell-based or functional assay"}, "[2]": {"target": "B1", "experiment": "MST; sPHGDH labelled with RED-NHS, 20 nM final; peptides in 16 points, 1:2 dilutions from 0.5 mM; 50 mM HEPES pH 7.5, 1 mM EDTA, 10 mM MgCl2, 100 mM NaCl, 0.005% Tween 20; incubated 16 h at room temperature; 1:1 binding mode; apparent", "details": "both partners purified"}, "[3]": {"target": "the molecule itself", "experiment": "cross-linking; sPHGDH 5 µM with peptides (0, 10, 50, 100, 250, 500 µM) and 2.5 mM BS3 in PBS (40 mM, pH 7.3), 25 °C, 30 min; SDS/PAGE; dimer to monomers"}, "[4]": {"target": "T1, full-length PHGDH (1-533) (human, UniProt O43175 1-533)", "T1 sequence (looked up)": "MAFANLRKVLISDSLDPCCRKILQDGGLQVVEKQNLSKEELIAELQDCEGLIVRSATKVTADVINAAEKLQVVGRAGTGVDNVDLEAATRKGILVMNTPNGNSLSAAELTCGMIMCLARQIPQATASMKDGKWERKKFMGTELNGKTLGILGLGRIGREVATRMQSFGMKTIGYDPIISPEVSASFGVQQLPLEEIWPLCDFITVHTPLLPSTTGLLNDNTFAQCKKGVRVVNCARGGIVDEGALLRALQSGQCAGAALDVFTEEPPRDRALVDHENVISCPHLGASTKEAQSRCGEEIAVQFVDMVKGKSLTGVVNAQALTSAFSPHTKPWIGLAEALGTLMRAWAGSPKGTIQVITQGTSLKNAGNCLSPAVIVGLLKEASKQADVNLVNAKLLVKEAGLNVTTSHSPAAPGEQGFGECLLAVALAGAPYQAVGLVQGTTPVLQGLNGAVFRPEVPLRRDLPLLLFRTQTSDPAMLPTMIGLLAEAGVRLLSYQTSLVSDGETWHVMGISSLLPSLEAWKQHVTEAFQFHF", "experiment": "cell-based or functional assay"}},
  "note": "Bridge positions count the residues as written; N and C are the ends. Ends that are not written are not given here.",
  "data": [
    {"binder": "CTPDATLSMKDGKWEEKKC (disulfide 1-19; not fully specified (N-terminus); printed as C_1_TPDA TLSMK DGKWE EKKC_19_, cyc1-2 with Q4D (peptide numbering); designed from the dimerization loop of human PHGDH; source: synthetic peptide (GL Biochem, Shanghai; Fmoc solid-phase synthesis, HPLC purified))", "note": "[cyclic peptide cyc1-6]", "values": [
      {"measurement": "IC50 of inhibition of sPHGDH enzyme activity (NADH fluorescence); the pair blocked is the sPHGDH homo-dimer (m1+m1)", "setting": "[1]", "value": 5.1, "unit": "µM"},
      {"measurement": "Kd", "setting": "[2]", "value": "24.8 ± 7.1", "unit": "µM"}
    ]},
    {"binder": "B1", "values": [
      {"measurement": "stoichiometry N", "setting": "[3]", "value": 2}
    ]},
    {"binder": "CTPQATLSMKNGSWEQKKC (disulfide 1-19; not fully specified (N-terminus); printed as C_1_TPQA TLSMK NGSWE QKKC_19_, contains R16Q, with A7L, D11N and K13S (peptide numbering); designed from the dimerization loop of human PHGDH; source: synthetic peptide (GL Biochem, Shanghai; Fmoc solid-phase synthesis, HPLC purified))", "note": "[cyclic peptide cyc1-12]", "values": [
      {"measurement": "IC50 of inhibition of sPHGDH enzyme activity (NADH fluorescence); the pair blocked is the sPHGDH homo-dimer (m1+m1)", "setting": "[1]", "value": 5.6, "unit": "µM"},
      {"measurement": "IC50 of inhibition of full-length PHGDH enzyme activity (NADH fluorescence); the pair blocked is the PHGDH homo-oligomer (m2+m2)", "setting": "[4]", "value": 20.3, "unit": "µM"}
    ]},
    {"binder": "Ac-CTPQATACMKDGKWCRKKC (disulfide 1-19, 8-15, cyc1-1 with an added intramolecular disulfide C8-C15 (S8C, E15C); designed from the dimerization loop of human PHGDH; source: synthetic peptide (GL Biochem, Shanghai; Fmoc solid-phase synthesis, stepwise disulfide formation, HPLC purified))", "note": "[double constrained cyclic peptide cyc2-1]", "values": [
      {"measurement": "IC50 of inhibition of sPHGDH enzyme activity (NADH fluorescence); the pair blocked is the sPHGDH homo-dimer (m1+m1)", "setting": "[1]", "value": 12, "unit": "µM"},
      {"measurement": "IC50 of inhibition of full-length PHGDH enzyme activity (NADH fluorescence); the pair blocked is the PHGDH homo-oligomer (m2+m2)", "setting": "[4]", "value": 37.3, "unit": "µM"},
      {"measurement": "Kd", "setting": "[2]", "value": "3.3 ± 0.8", "unit": "µM"}
    ]},
    {"binder": "Ac-CTPQATACMRDGKWCRKKC (disulfide 1-19, 8-15, cyc2-1 with K10R (peptide numbering); source: synthetic peptide (GL Biochem, Shanghai; Fmoc solid-phase synthesis, stepwise disulfide formation, HPLC purified))", "note": "[double constrained cyclic peptide cyc2-3]", "values": [
      {"measurement": "IC50 of inhibition of sPHGDH enzyme activity (NADH fluorescence); the pair blocked is the sPHGDH homo-dimer (m1+m1)", "setting": "[1]", "value": 5.2, "unit": "µM"},
      {"measurement": "IC50 of inhibition of full-length PHGDH enzyme activity (NADH fluorescence); the pair blocked is the PHGDH homo-oligomer (m2+m2)", "setting": "[4]", "value": 32.9, "unit": "µM"}
    ]},
    {"binder": "CTPQATLTMKNGSWEEKKC (disulfide 1-19; not fully specified (N-terminus); printed as C_1_TPQA TLTMK NGSWE EKKC_19_, A7L and S8T combined with D11N, K13S, native E15 kept, E16 (peptide numbering); designed from the dimerization loop of human PHGDH; source: synthetic peptide (GL Biochem, Shanghai; Fmoc solid-phase synthesis, HPLC purified))", "note": "[cyclic peptide cyc1-11]", "values": [
      {"measurement": "IC50 of inhibition of sPHGDH enzyme activity (NADH fluorescence); the pair blocked is the sPHGDH homo-dimer (m1+m1)", "setting": "[1]", "value": 5.4, "unit": "µM"},
      {"measurement": "IC50 of inhibition of full-length PHGDH enzyme activity (NADH fluorescence); the pair blocked is the PHGDH homo-oligomer (m2+m2)", "setting": "[4]", "value": 16.2, "unit": "µM"},
      {"measurement": "Kd", "setting": "[2]", "value": "23.1 ± 4.2", "unit": "µM"}
    ]}
  ]
}
